This data set concerns the target HIV-1 reverse transcriptase WT (Human immunodeficiency virus type 1, UniProt P04585;P04585 588-1147;588-1027). The data set can be described thus: site-specific Fe2+ footprinting; 6 mM MgCl2, 1 uM EFdA-TP, 1 mM Fe2+, varied dTTP; RT 600 nM, T/P 100 nM; mainly pre-translocation; Footprinting: 120 mM sodium cacodylate pH 7, 20 mM NaCl, 6 mM MgCl2, 1 uM EFdA-TP, 7 min pre-incubation with dTTP, then 1 mM ammonium iron sulfate 5 min; temperature not given; EMSA conditions not in the material. To be noted: protein: recombinant; copies: 1;1; label: 5'-Cy3 on template Td43; template 5' overhang 12 nt after EFdA-MP addition; other end blunt. (In general: Mobility shift assays separate free from complexed probe on a gel.)

B1: Td43/Pd30-EFdA-MP (dsDNA)
DNA 1: CCATAGATAGCATTGGTGCTCGAACAGTGACAATCAGTGTAGA
DNA 2: TCTACACTGATTGTCACTGTTCGAGCACCAA
modifications: EFdA-MP (4'-ethynyl-2-fluoro-2'-deoxyadenosine monophosphate) as 3'-terminal nucleotide of primer, written A; added in situ by RT to Pd30 (S9)
For the molecule B1, the binding result is given as “binds”.
